Test results taken from publication PMC4794721, “Improved Production of Active Streptomyces griseus Trypsin with a Novel Auto-Catalyzed Strategy” (Scientific Reports, 2016).

Substrate: N=C(N)NCCCC(NC(=O)c1ccccc1)C(=O)Nc1ccc([N+](=O)[O-])cc1
Experiment: purified protein
Conditions: 50 mM Tris-HCl, pH 8.0, 37 °C (amidase assay)

B1: SGT (Streptomyces griseus trypsin) (Streptomyces griseus) (protein)
chain: VVGGTRAAQGEFPFMVRLSMGCGGALYAQDIVLTAAHCVSGSGNNTSITATGGVVDLQSSSAVKVRSTKVLQAPGYNGTGKDWALIKLAQPINQPTLKIATTTAYNQGTFTVAGWGANREGGSQQRYLLKANVPFVSDAACRSAYGNELVANEEICAGYPDTGGVDTCQGDSGGPMFRKDNADEWIQVGIVSWGYGCARPGYPGVYTEVSTFASAIASAARTL
Km: 7.88 ± 0.16 × 10^−2 mM
